According to patent US20250121002A1 (NOILE IMMUNE BIOTECH, published 2025):
Positions count from the first letter of the chain named.

B1: anti-EGFRviiiCAR with VL25VH (SG) type scFv based on the 3C2-1B10 clone, on PRIME EGFRviii CAR-T cells (other)
chain: DVVVTQTPLSLPVSLGDQASISCRSSQSLVHSSGITYLQWYLQKPGQSPKLLIYKVSTRFSGVPDRFSGSGSGTDFTLRISRVEAEELGVYFCSQSTHIPWTFGGGTKLEIKSSADDAKKDAAKKDDAKKDDAKKDGQVTLKESGPGILQPSQTLSLACSFSGFSLSTSGMGVSWIRQPSGKGLEWLAHIYWDDDRRYNPSLKSRLTISRDTSSNQVFLRITSVDTADTATYYCARNYGFDVWGAGTTVTVSS
notes: also called PRIME EGFRviii CAR-T cells based on the 3C2-1B10 clone; not shown: rest of the CAR, produced 'in a manner similar to that based on the 1B10-1A12 clone' (third generation: CD8 transmembran)
B2: third generation anti-EGFRviiiCAR with scFv S#026 VL25VH (SG) of the 1B10-1A12 clone, on PRIME EGFRviii CAR-T cells (other)
chain: DVVMTQTPLSLPVSLEDQASISCRSSQSLVHSSGKTYLQWYLQKPGQSPKLLIYSVSNRFSGVPDRFSGSGSGRDFTLKISRVEAEDLGVYFCSQSTHVPWTFGGGTKLEIKSSADDAKKDAAKKDDAKKDDAKKDGQVTLKESGPGILQPSQTLSLTCSFSGFSLSTSGMGVSWIRQPSGKGLEWLAHIFWDDDKRYNPSLKSRLTISKDTSTNQVFLKITSVDTADTATYYCARNYGFDVWGAGTTVTVSS
notes: also called PRIME EGFRviii CAR-T cells based on the 1B10-1A12 clone; not shown: rest of the third generation CAR: human CD8 transmembrane region and human CD28-4-1BB-CD3zeta intracellular signal trans
B3: anti-EGFRviiiCAR with VL25VH (SG) type scFv based on the 2H9-1B5 clone, on PRIME EGFRviii CAR-T cells (other)
chain: B2 chain with M4V, Q27R, S81N, F161L, F191Y, K196T, S204R
notes: also called PRIME EGFRviii CAR-T cells based on the 2H9-1B5 clone; not shown: rest of the CAR, produced 'in a manner similar to that based on the 1B10-1A12 clone' (third generation: CD8 transmembran)

These binders were tested against T1, recombinant EGFRviii protein (UniProt P00533 25-645) (assay: flow cytometry; CAR-T cells stained with recombinant EGFRviii protein).
T1 construct: EGFRviii is a deletion variant of it; The construct is not described
Text: CytoFLEX S (manufactured by Beckman Coulter, Inc.) was used as the flow cytometer, and FlowJo software (manufactured by Tree Star, Inc.) was used for data analysis.

| flow cytometer measurement result (percent of cells stained with recombinant EGFRviii protein) [%] | Binder |
| --- | --- |
| 1.4 | B1 |
| 32.4 | B2 |
| 3.6 | B3 |
